Results: the supplement of paper PMC10567573

B1: CLCN6 (parent)
chain: VGEIVGIITRHNLTYEFLQARLRQ
B2: C20orf112 (parent)
chain: YANGGLNYSYRGYGALSSNLQPPA

Variants of: B1
Test: protein stability index of a GFP-peptide fusion (GPS, HEK-293T) (PSI 1-6); higher = more stable
Details: c terminus: a fixed tail appended
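Note: lentivirally expressed fusions sorted by FACS into six bins by GFP to DsRed ratio, PSI derived from sequencing read proportions per bin multiplied by bin number.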

| Variant | protein stability index |
| --- | --- |
| EGEIVGIITRHNLTYEFLQARLRQ [V1E] | 2.25 |
| HGEIVGIITRHNLTYEFLQARLRQ [V1H] | 2.82 |
| DGEIVGIITRHNLTYEFLQARLRQ [V1D] | 2.41 |
| CGEIVGIITRHNLTYEFLQARLRQ [V1C] | 2.26 |
| MGEIVGIITRHNLTYEFLQARLRQ [V1M] | 2.29 |
| AGEIVGIITRHNLTYEFLQARLRQ [V1A] | 1.44 |
| RGEIVGIITRHNLTYEFLQARLRQ [V1R] | 1.58 |
| GGEIVGIITRHNLTYEFLQARLRQ [V1G] | 1.27 |
| PGEIVGIITRHNLTYEFLQARLRQ [V1P] | 1.44 |
| QGEIVGIITRHNLTYEFLQARLRQ [V1Q] | 2.08 |
| IGEIVGIITRHNLTYEFLQARLRQ [V1I] | 2.88 |
| FGEIVGIITRHNLTYEFLQARLRQ [V1F] | 2.41 |
| NGEIVGIITRHNLTYEFLQARLRQ [V1N] | 3.06 |
| SGEIVGIITRHNLTYEFLQARLRQ [V1S] | 2.31 |
| KGEIVGIITRHNLTYEFLQARLRQ [V1K] | 2.18 |
| LGEIVGIITRHNLTYEFLQARLRQ [V1L] | 1.76 |

Variants of: B2
Test: as above
Details: c terminus: a fixed tail appended

| Variant | protein stability index |
| --- | --- |
| YANGGLNYSYRGYGATSSNLQPPA [L16T] | 1.76 |
| YANGGLNYSYRGYGANSSNLQPPA [L16N] | 2.61 |
| YANGGLNYSYRGYGAWSSNLQPPA [L16W] | 2.68 |
| YANGGLNYSYRGYGAPSSNLQPPA [L16P] | 2.57 |
| YANGGLNYSYRGYGAHSSNLQPPA [L16H] | 2.48 |
| YANGGLNYSYRGYGADSSNLQPPA [L16D] | 1.68 |
| YANGGLNYSYRGYGAQSSNLQPPA [L16Q] | 2.02 |
| YANGGLNYSYRGYGAMSSNLQPPA [L16M] | 1.75 |
| YANGGLNYSYRGYGAVSSNLQPPA [L16V] | 2.21 |
| YANGGLNYSYRGYGASSSNLQPPA [L16S] | 2.03 |
| YANGGLNYSYRGYGAESSNLQPPA [L16E] | 2.54 |
| YANGGLNYSYRGYGACSSNLQPPA [L16C] | 1.64 |
| YANGGLNYSYRGYGAGSSNLQPPA [L16G] | 2.61 |
| YANGGLNYSYRGYGAASSNLQPPA [L16A] | 2.11 |
| YANGGLNYSYRGYGAISSNLQPPA [L16I] | 2.43 |
| YANGGLNYSYRGYGAKSSNLQPPA [L16K] | 1.87 |
| YANGGLNYSYRGYGAFSSNLQPPA [L16F] | 1.67 |
| YANGGLNYSYRGYGARSSNLQPPA [L16R] | 2.3 |
| YANGGLNYSYRGYGAYSSNLQPPA [L16Y] | 2.05 |
| YANGGLNYSYRGYGALSSNLHPPA [Q21H] | 2.04 |
| YANGGLNYSYRGYGALSSNLMPPA [Q21M] | 1.71 |
| YANGGLNYSYRGYGALSSNLWPPA [Q21W] | 1.75 |
| YANGGLNYSYRGYGALSSNLYPPA [Q21Y] | 2.29 |
| YANGGLNYSYRGYGALSSNLTPPA [Q21T] | 2.61 |
| YANGGLNYSYRGYGALSSNLCPPA [Q21C] | 1.74 |
| YANGGLNYSYRGYGALSSNLFPPA [Q21F] | 2.26 |

| Variant | protein stability index |
| --- | --- |
| YANGGLNYSYRGYGALSSNLIPPA [Q21I] | 2.76 |
| YANGGLNYSYRGYGALSSNLGPPA [Q21G] | 1.21 |
| YANGGLNYSYRGYGALSSNLDPPA [Q21D] | 2.22 |
| YANGGLNYSYRGYGALSSNLEPPA [Q21E] | 2.16 |
| YANGGLNYSYRGYGALSSNLKPPA [Q21K] | 2.17 |
| YANGGLNYSYRGYGALSSNLSPPA [Q21S] | 2.5 |
| YANGGLNYSYRGYGALSSNLNPPA [Q21N] | 1.64 |
| YANGGLNYSYRGYGALSSNLPPPA [Q21P] | 2.28 |
| YANGGLNYSYRGYGALSSNLLPPA [Q21L] | 1.99 |
| YANGGLNYSYRGYGALSSNLVPPA [Q21V] | 1.59 |
| YANGGLNYSYRGYGALSSNLAPPA [Q21A] | 1.66 |
| YANGGLNYSYRGYGALSSNLRPPA [Q21R] | 1.75 |
| YANGGLNYSYRGYGYLSSNLQPPA [A15Y] | 2.97 |
| YANGGLNYSYRGYGALSSNLQPSA [P23S] | 1.65 |
| YANGGLNYSYRGYGALSSNLQPRA [P23R] | 1.81 |
| YANGGLNYSYRGYGALSSNLQPIA [P23I] | 2.09 |
| YANGGLNYSYRGYGALSSNLQPFA [P23F] | 2.52 |
| YANGGLNYSYRGYGALSSNLQPAA [P23A] | 1.81 |
| YANGGLNYSYRGYGALSSNLQPKA [P23K] | 1.97 |
| YANGGLNYSYRGYGALSSNLQPYA [P23Y] | 1.9 |
| YANGGLNYSYRGYGALSSNLQPVA [P23V] | 1.84 |
| YANGGLNYSYRGYGALSSNLQPLA [P23L] | 1.54 |
| YANGGLNYSYRGYGALSSNLQPHA [P23H] | 1.34 |
| YANGGLNYSYRGYGALSSNLQPDA [P23D] | 2.09 |
| YANGGLNYSYRGYGALSSNLQPWA [P23W] | 2.61 |
| YANGGLNYSYRGYGALSSNLQPTA [P23T] | 1.6 |

| Variant | protein stability index |
| --- | --- |
| YANGGLNYSYRGYGALSSNLQPGA [P23G] | 2.6 |
| YANGGLNYSYRGYGALSSNLQPQA [P23Q] | 1.77 |
| YANGGLNYSYRGYGALSSNLQPEA [P23E] | 2.05 |
| YANGGLNYSYRGYGALSSNLQPNA [P23N] | 2.17 |
| YANGGLNYSYRGYGALSSNLQPCA [P23C] | 1.92 |
| YANGGLNYSYRGYGALSSNLQPMA [P23M] | 2.3 |
| YANGGLNYSYRGYGALSSNLQFPA [P22F] | 3.69 |
| YANGGLNYSYRGYGALSSNLQIPA [P22I] | 2.35 |
| YANGGLNYSYRGYGALSSNLQAPA [P22A] | 1.5 |
| YANGGLNYSYRGYGALSSNLQSPA [P22S] | 1.62 |
| YANGGLNYSYRGYGALSSNLQNPA [P22N] | 2.33 |
| YANGGLNYSYRGYGALSSNLQEPA [P22E] | 2.41 |
| YANGGLNYSYRGYGALSSNLQGPA [P22G] | 2.65 |
| YANGGLNYSYRGYGALSSNLQRPA [P22R] | 1.76 |
| YANGGLNYSYRGYGALSSNLQHPA [P22H] | 1.94 |
| YANGGLNYSYRGYGALSSNLQQPA [P22Q] | 2 |
| YANGGLNYSYRGYGALSSNLQYPA [P22Y] | 3.09 |
| YANGGLNYSYRGYGALSSNLQVPA [P22V] | 1.83 |
| YANGGLNYSYRGYGALSSNLQWPA [P22W] | 1.97 |
| YANGGLNYSYRGYGALSSNLQKPA [P22K] | 2.66 |
| YANGGLNYSYRGYGALSSNLQLPA [P22L] | 2.27 |
| YANGGLNYSYRGYGALSSNLQCPA [P22C] | 2.97 |
| YANGGLNYSYRGYGALSSNLQDPA [P22D] | 1.6 |
| YANGGLNYSYRGYGALSSNLQTPA [P22T] | 1.71 |
| YANGGLNYSYRGYGALSSNLQMPA [P22M] | 1.63 |
| YANGGLNYSYRGYGALSSNLQPPF [A24F] | 1.78 |
